Assay results taken from patent US9371393B2, “Class I anti-CEA antibodies and uses thereof” (Immunomedics, Inc., priority 2009, dated 2016).

T1: ^125I-CEA (Homo sapiens, UniProt P06731)
T1 construct: purchased ROCHE
T1 sequence (P06731 35-676): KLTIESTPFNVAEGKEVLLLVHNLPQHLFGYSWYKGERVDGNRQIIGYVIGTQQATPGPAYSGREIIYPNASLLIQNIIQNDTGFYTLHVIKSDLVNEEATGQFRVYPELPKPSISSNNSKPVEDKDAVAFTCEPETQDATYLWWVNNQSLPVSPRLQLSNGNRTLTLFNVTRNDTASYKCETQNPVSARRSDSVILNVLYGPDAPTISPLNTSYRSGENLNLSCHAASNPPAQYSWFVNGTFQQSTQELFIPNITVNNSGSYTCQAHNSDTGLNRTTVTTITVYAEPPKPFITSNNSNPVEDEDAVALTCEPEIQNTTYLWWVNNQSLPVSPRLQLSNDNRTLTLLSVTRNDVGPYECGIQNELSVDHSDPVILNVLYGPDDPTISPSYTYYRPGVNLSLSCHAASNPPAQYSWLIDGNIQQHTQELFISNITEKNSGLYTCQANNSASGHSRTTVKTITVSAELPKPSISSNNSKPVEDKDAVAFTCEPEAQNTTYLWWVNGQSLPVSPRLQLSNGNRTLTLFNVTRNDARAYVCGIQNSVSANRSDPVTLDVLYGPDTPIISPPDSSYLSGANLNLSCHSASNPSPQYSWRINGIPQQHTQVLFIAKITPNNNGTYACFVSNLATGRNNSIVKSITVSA

T2: CEA (HeLa-CEA2) (Homo sapiens, UniProt P06731)
T2 construct: expressed in transfected cells; host or cells: HeLa (HeLa-CEA2)
T2 sequence (P06731 35-676): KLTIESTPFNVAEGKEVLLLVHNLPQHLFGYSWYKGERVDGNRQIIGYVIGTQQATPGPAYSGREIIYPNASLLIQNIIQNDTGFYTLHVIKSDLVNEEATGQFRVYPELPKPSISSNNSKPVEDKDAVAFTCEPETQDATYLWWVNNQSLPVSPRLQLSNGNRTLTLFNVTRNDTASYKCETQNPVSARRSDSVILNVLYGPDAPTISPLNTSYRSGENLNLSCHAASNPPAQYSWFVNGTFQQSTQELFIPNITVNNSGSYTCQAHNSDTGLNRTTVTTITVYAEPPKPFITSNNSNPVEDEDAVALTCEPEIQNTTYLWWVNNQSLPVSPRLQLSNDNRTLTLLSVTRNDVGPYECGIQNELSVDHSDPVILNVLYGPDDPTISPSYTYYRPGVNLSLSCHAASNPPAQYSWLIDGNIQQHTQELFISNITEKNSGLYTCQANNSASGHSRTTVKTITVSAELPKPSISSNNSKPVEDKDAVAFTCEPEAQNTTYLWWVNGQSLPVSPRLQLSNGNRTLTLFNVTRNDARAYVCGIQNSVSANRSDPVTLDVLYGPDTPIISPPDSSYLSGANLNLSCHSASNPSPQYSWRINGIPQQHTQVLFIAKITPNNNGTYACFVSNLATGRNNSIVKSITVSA

B1: MN-15: murine Class I anti-CEA MAb, IgG1 kappa, binds A1B1 domain of CEACAM5 and CEACAM6 (antibody, V domains shown)
VL: DIQLTQSPAIMSASPGEKVTMTCSASSRVSYIHWYQQKSGTSPKRWIYGTSTLASGVPARFSGSGSGTSYSLTISSMEAEDAATYYCQQWSYNPPTFGAGTKLELKR
VH: EVRLVESGGGLVQGPGSLRLSCAASGFALTDYYMSWVRQSPGKTLEWLGFIANKANGHTTDYSPSVKGRFTISRDNSQTILYLQMNTLRTEDSATYYCARDMGIRWNFDVWGQGTTVTVSS
B2: MN-15 Fab′: monovalent Fab′ fragment of murine MN-15 (antibody, V domains shown)
VL: DIQLTQSPAIMSASPGEKVTMTCSASSRVSYIHWYQQKSGTSPKRWIYGTSTLASGVPARFSGSGSGTSYSLTISSMEAEDAATYYCQQWSYNPPTFGAGTKLELKR
VH: EVRLVESGGGLVQGPGSLRLSCAASGFALTDYYMSWVRQSPGKTLEWLGFIANKANGHTTDYSPSVKGRFTISRDNSQTILYLQMNTLRTEDSATYYCARDMGIRWNFDVWGQGTTVTVSS

Key:
^125I-CEA = biological target: T1, ^125I-CEA; test: ROCHE 125I-CEA radioimmunoassay (RIA); assay type: binding; details: 0.01 and 0.10 M NH4 acetate buffer
Experimental: Hybridoma supernatants were screened for CEA reactive antibody by the ROCHE® ^125I-CEA radioimmunoassay (RIA) in 0.01 and 0.10 M NH4 acetate buffer. Positive clones were recloned. The granulocyte reactivity of CEA-reactive MAb was determined by whole-blood indirect fluorescent flow cytometric analysis (Sharkey et al. Cancer Res., 1990, 50:2823-31). Two MAb with properties similar to those of NP-2 and NP-3, designated MN-2 and MN-6, were selected for additional development.

CEA (HeLa-CEA2) = biological target: T2, CEA (HeLa-CEA2); test: Indirect flow cytometry, HeLa-CEA2; assay type: binding; details: antibodies at 1/50 dilution of 1 mg/ml stocks
Experimental: The reactivity of antibodies was tested by flow cytometry with a Becton-Dickinson FACSCAN®. The biotinylated second antibody was directed against mouse IgG and was detected by a streptavidin/phycoerythrin conjugate. Tests were carried out with antibodies at 1/50 dilution of 1 mg/ml stocks.
The antibodies MN-3 and MN-15 were tested for recognition of HeLa cells transfected with cDNA coding for CEA (HeLa-CEA2), NCA-90 (HeLa-KNC6/S44) and NCA-95 (HeLa-CGM6/1). As a negative control, HeLa cells transfected with the plasmid pSV2-Neo (control HeLa cells, HeLa-NeoA) were used. In addition to the antibodies MN-3 and MN-15, three control antibodies were included: […]

CaPAN-1 cells = test: Collagen-based invasion assay, CaPAN-1; assay type: cell-based, human; details: 10% FBS chemoattractant, 72-hour incubation
Experimental: Collagen-based invasion assay—The assay was done using CHEMICON® Kit (#ECM551, MILLIPORE®, Billerica, Mass.). Tumor cells at 80% confluence and were serum-starved for 18 to 24 hours before the assay was used. Cells were harvested with 5 mol of 2 mmol/L EDTA/PBS per 100-mm dish and incubated at 37° C. for 5 to 15 minutes. Cells were collected into 10 to 20 mol of quenching medium (serum-free DMEM containing 5% BSA) to inactivate trypsin/EDTA from the harvesting buffer. Cells were pelleted, resuspended in quenching medium (1×10^6 cells/mol), and appropriate antibody Fabs were added to individual cell aliquots. Cell invasion potential was determined as follows. Baseline invasion and invasion in the presence of a chemoattractant (10% FBS) were measured after a 72-hour incubation period at 37° C. in a 5% CO2 incubator. The bottom side of the collagen-coated polycarbonate membrane insert of the invasion chamber was placed in 400 μL of cell stain for 20 minutes at room temperature and washed. The dye was extracted and transferred into a 96-well microtiter plate for colorimetric measurements (A560 nm).

[1] = tested on: GW-39 human colonic carcinoma; test: GW-39 intrapulmonary micrometastasis model (GW-39iv), survival; assay type: in vivo, nude mice; details: cells pretreated with Fab′ 10 μg/mol, 100 μg i.v. 1 day after implantation; untreated 42 days
Experimental: FIG. 7 illustrates an exemplary in vivo micrometastasis study. Top, immunohistochemistry of GW-39 tumor sections stained with a nonspecific antibody (left), MN-14 anti-CEACAM5 (middle), and MN-15 anti-CEACAM6 (right) and photographed at 100×. Bottom, survival of nude mice implanted with 30 μL of a 10% suspension of GW-39 human colonic cancer cells. Mice were implanted with cells that were […] for 30 minutes with MN-3-, MN-15-, or hMN-14-Fab′ (10 μg/mol). Mice also received a single 100 μg dose of the same Fab′ 1 day after cell implantation.
In vivo therapy studies—Female athymic nude mice (6 to 8 weeks old) were purchased from TACONIC® (Germantown, N.Y.). Therapy studies were done using our CEACAM5+/CEACAM6+GW-39 intrapulmonary micrometastasis model, GW-39iv (Sharkey et al., J Natl Cancer Inst 1991, 83:627-32; Blumenthal et al., Cancer Res 1992, 52:6036-44). The GW-39 human colonic carcinoma has been maintained as a serially transplanted signet-ring cell cancer line since 1966 (Goldenberg et al., Transplantation 1966, 4:760-4). […] Body weight was monitored weekly and animal survival recorded. Results were analyzed by the Kaplan-Meier estimated survival curves, and significance was determined with the log-rank comparison of survival curves. Median survival time for each treatment group also was determined. […]

| Molecule | ion sensitivity of CEA binding / reactivity with ion-sensitive CEA determinant (^125I-CEA) | binding to CEA (CEA (HeLa-CEA2)) | reduction in cell invasion (CaPAN-1 cells) [%] | median survival time [1] [days] |
| --- | --- | --- | --- | --- |
| B1 | binding to epitopes of the ion-sensitive CEA determinant | binds to all three antigens | – | – |
| B2 | – | – | 73 | > 77 |
